Data on 7 molecules can be found in paper PMC8548392, “Miniature type V-F CRISPR-Cas nucleases enable targeted DNA modification in cells” (Nature Communications, 2021).

The target of data set [1] is AsCas12f1 (Acidibacillus sulfuroxidans Cas12f1) (Acidibacillus sulfuroxidans). Briefly: mass photometry; ternary complex with gRNA and dsDNA target; 200 nM Cas12f1 RNP and 25 nM DNA in binding buffer (40 mM Tris-HAc pH 8.4, 5 mM Mg acetate), 30 min at 45 °C, then diluted 1:10.
Data set [2] shares this target. Briefly: mass photometry; binary complex with gRNA; 1 µM Cas12f1 protein and 500 nM gRNA in complex assembly buffer (10 mM Tris-HCl pH 7.5, 100 mM NaCl, 1 mM EDTA, 1 mM DTT), 30 min at 37 °C, then diluted 1:10.
Data set [3] concerns the molecule itself. Described as above.
Data set [4] deals with T1, dSpCas12f1 (Syntrophomonas palmitatica, UniProt P0DW62 1-497, D228A).
T1 sequence: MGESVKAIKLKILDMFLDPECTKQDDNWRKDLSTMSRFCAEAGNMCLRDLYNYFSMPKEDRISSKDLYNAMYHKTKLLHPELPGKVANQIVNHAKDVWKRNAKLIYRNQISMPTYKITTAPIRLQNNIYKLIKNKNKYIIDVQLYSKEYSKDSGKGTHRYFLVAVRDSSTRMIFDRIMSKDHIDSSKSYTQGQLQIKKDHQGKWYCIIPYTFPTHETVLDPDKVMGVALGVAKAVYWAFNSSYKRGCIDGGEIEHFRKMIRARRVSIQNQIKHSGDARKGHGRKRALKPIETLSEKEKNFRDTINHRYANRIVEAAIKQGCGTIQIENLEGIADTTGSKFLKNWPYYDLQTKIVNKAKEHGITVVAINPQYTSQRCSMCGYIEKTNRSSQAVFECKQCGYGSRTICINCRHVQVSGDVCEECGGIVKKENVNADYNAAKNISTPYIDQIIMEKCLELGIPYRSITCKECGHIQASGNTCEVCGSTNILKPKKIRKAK
Briefly: mass photometry; binary complex 179 kDa, 2:1 protein:gRNA; EMSA: 40 mM Tris, 20 mM acetic acid pH 8.4, 1 mM EDTA, 0.1 mg/ml BSA, 10% glycerol, 5 mM Mg acetate, 1 nM DNA, 0-250 nM RNP, 30 min at room temperature or as indicated. Mass photometry: binary in 10 mM Tris-HCl pH 7.5, 100 mM NaCl, 1 mM EDTA, 1 mM DTT, 37 C; ternary in 40 mM Tris-acetate pH 8.4, 5 mM Mg acetate, 45 C. The note with it: protein: recombinant; tags: 10xHis-MBP-TEV tag removed; chain copies: 2; single chain, folded. A general note: Mobility shift assays separate free from complexed probe on a gel.

For data set [5], the target named is T1, dSpCas12f1. In words: mass photometry; ternary 2:1:1, 5 mM Mg2+, incubated at 45 C; EMSA: 40 mM Tris, 20 mM acetic acid pH 8.4, 1 mM EDTA, 0.1 mg/ml BSA, 10% glycerol, 5 mM Mg acetate, 1 nM DNA, 0-250 nM RNP, 30 min at room temperature or as indicated. Mass photometry: binary in 10 mM Tris-HCl pH 7.5, 100 mM NaCl, 1 mM EDTA, 1 mM DTT, 37 C; ternary in 40 mM Tris-acetate pH 8.4, 5 mM Mg acetate, 45 C. The note with it: protein: recombinant; tags: 10xHis-MBP-TEV tag removed; chain copies: 2; label: 32P 5'-end in EMSA; guide RNA + DNA duplex.

The target in data set [6] is T2, dAsCas12f1 (Acidibacillus sulfuroxidans, UniProt A0A2U3D0N8 1-422, D225A).
T2 sequence: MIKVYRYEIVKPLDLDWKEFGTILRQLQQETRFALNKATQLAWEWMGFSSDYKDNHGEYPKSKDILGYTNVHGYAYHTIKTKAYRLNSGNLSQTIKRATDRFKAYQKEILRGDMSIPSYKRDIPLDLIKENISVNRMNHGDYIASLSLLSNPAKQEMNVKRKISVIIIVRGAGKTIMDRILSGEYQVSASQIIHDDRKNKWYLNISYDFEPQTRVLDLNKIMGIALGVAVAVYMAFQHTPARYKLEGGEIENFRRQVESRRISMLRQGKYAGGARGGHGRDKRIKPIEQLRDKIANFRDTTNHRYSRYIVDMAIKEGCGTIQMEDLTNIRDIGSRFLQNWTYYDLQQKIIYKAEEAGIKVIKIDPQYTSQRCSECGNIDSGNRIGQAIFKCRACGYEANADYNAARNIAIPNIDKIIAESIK
The description is as above. The note with it: protein: recombinant; tags: 10xHis-MBP-TEV tag removed; chain copies: 2; label: 32P 5'-end in EMSA; guide RNA + DNA duplex.

Data set [7] has as its target T2, dAsCas12f1. In words: EMSA; 5 mM Mg2+, room temperature; EMSA: 40 mM Tris, 20 mM acetic acid pH 8.4, 1 mM EDTA, 0.1 mg/ml BSA, 10% glycerol, 5 mM Mg acetate, 1 nM DNA, 0-250 nM RNP, 30 min at room temperature or as indicated. Mass photometry: binary in 10 mM Tris-HCl pH 7.5, 100 mM NaCl, 1 mM EDTA, 1 mM DTT, 37 C; ternary in 40 mM Tris-acetate pH 8.4, 5 mM Mg acetate, 45 C. The note with it: protein: recombinant; tags: 10xHis-MBP-TEV tag removed; chain copies: 2; label: 32P 5'-end; guide RNA + ssDNA.

The target of data set [8] is T1, dSpCas12f1. The data set is described as above. The note with it: protein: recombinant; tags: 10xHis-MBP-TEV tag removed; chain copies: 2; label: 32P 5'-end; guide RNA + ssDNA.

Numbering of substitutions follows the chain as printed. Names may count otherwise.

As a reminder, the stoichiometry N is a count of units in the complex or per binding partner. With “AsCas12f1 (Acidibacillus sulfuroxidans Cas12f1) (from UniProt A0A2U3D0N8 1-422) (enzyme)”, the stoichiometry N in data set [1] and in data set [2] was 2 throughout.

B1: Nuclease inactivated or dead (d) SpCas12f1 (D228A) (enzyme, Syntrophomonas palmitatica, UniProt P0DW62 1-497, looked up)
chain: T1 sequence
notes: SpCas12f1, type V-F CRISPR-Cas nuclease of Syntrophomonas palmitatica, 497 aa, with D228A in the RuvC active site; The tag was removed at a TEV site (ENLYFQS), so a residue of the site may remain at the N-terminus; also called dCas12f1; source: E. coli Arctic Express (DE3), purified (Ni2+ HiTrap chelating, heparin, TEV cleavage, heparin); not shown: 10xHis, N-terminal, cleaved; MBP, N-terminal, …
Regarding B1, the “stoichiometry N” value in data set [3] turned out to be 2.

B2: SpCas12f1 sgRNA T1, 18 nt spacer (structured_RNA)
RNA: GGGAUUUACUCUGUUUCGCGCGCCAGGGCAGUUAGGUGCCCUAAAAGAGCGAAGUGGCCGAAAGGAAAGGCUAACGCUUCUCUAACGCUACGGCGACCUUGGCGAAAUGCCAUCAAUACCACGCGGCCCGAAAGGGUUCGCGCGAAACUGAGUAAUGAAAGUCGCAUCUUGCGUAAGCGCGUGGAUUGAAACAGUUGACCCAACGUCGCC
For B2, in the data set with dSpCas12f1 [4], the binding result was “binds”.

B3: Sp sgRNA (18 nt spacer) + dsDNA target with PAM (mixed)
DNA 1: GCACCTTACTGCAAGGTAGCCACGTTCAGTTGACCCAACGTCGCCGGCGTGCACAATCTAGATGCATCAGCTGC
DNA 2: GCAGCTGATGCATCTAGATTGTGCACGCCGGCGACGTTGGGTCAACTGAACGTGGCTACCTTGCAGTAAGGTGC
B3: the binding result in the data set with dSpCas12f1 [5] was “binds”.

B4: As sgRNA + dsDNA target with PAM (mixed)
DNA 1: B3 DNA 1 with C21G, A22T, C23A, G24T, C27A
DNA 2: B3 DNA 2 with G48T, C51A, G52T, T53A, G54C
In the case of B4, in the data set with dAsCas12f1 [6], the binding result is “binds”.

B5: As sgRNA + ssDNA target strand (mixed)
DNA: B3 DNA 2 with G48T, C51A, G52T, T53A, G54C
With B5, in the data set with dAsCas12f1 [7], the binding result was “binds”.

B6: Sp sgRNA (18 nt spacer) + ssDNA target strand (mixed)
DNA: B3 DNA 2
Regarding B6, the binding result in the data set with dSpCas12f1 [8] is listed as “binds”.
